Results on five molecules are retold here after patent US20250026846A1 (JCR PHARMACEUTICALS, published 2025).

Test [1] deals with T1, recombinant human TfR (r human TfR: Sino Biological Inc.), hTfR extracellular region with a histidine tag at … (human, UniProt P02786 89-760).
T1 construct: Bought from Sino Biological; also called r human TfR-ECD (Histag); recombinant hTfR; not shown: histidine tag at the N-terminus
Kind of test: BLI (Octet RED96), His-tagged TfR ECD on Ni-NTA sensor.

Test [2] has as its target T2, recombinant monkey TfR (r monkey TfR: Sino Biological Inc.), crab-eating monkey TfR extracellular region with … (crab-eating monkey (Macaca fascicularis)).
T2 construct: Bought from Sino Biological; also called r monkey TfR-ECD (Histag); not shown: histidine tag at the N-terminus
T2 chain: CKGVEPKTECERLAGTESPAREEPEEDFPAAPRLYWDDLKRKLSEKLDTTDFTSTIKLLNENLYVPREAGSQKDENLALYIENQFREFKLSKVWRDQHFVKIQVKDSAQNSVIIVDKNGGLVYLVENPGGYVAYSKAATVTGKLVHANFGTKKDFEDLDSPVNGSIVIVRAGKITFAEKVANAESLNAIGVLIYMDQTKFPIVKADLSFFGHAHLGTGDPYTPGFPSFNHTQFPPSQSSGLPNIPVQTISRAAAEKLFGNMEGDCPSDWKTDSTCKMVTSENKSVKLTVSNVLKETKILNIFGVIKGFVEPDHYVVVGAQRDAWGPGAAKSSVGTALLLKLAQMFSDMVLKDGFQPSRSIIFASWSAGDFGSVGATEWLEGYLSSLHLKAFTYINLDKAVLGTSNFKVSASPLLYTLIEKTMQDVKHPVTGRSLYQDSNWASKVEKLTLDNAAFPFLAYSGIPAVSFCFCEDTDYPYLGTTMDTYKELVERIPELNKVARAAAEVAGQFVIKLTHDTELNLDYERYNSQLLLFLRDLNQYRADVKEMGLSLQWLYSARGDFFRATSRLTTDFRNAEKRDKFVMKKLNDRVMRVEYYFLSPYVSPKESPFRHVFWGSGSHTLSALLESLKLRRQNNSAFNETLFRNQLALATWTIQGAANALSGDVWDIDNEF
The test is described as above.

B1: Fab GS3-IDUA (other)
light: DIVMTQTPLSLSVTPGQPASISCRSSQSLVHSNGNTYLHWYLQKPGQSPQLLIYKVSNRFSGVPDRFSGSGSGTDFTLKISRVEAEDVGVYYCSQSTHVPWTFGQGTKVEIKRTVAAPSVFIFPPSDEQLKSGTASVVCLLNNFYPREAKVQWKVDNALQSGNSQESVTEQDSKDSTYSLSSTLTLSKADYEKHKVYACEVTHQGLSSPVTKSFNRGEC
heavy: EVQLVQSGAEVKKPGESLKISCKGSGYSFMNYWLGWVRQMPGKGLEWMGDIYPGGDYPTYSEKFKVQVTISADKSISTAYLQLSSLKASDTAMYYCARSGNYDEVAYWGQGTLVTVSSASTKGPSVFPLAPSSKSTSGGTAALGCLVKDYFPEPVTVSWNSGALTSGVHTFPAVLQSSGLYSLSSVVTVPSSSLGTQTYICNVNHKPSNTKVDKKVEPKSCDKTHTGGGGSGGGGSGGGGSAEAPHLVHVDAARALWPLRRFWRSTGFCPPLPHSQADQYVLSWDQQLNLAYVGAVPHRGIKQVRTHWLLELVTTRGSTGRGLSYNFTHLDGYLDLLRENQLLPGFELMGSASGHFTDFEDKQQVFEWKDLVSSLARRYIGRYGLAHVSKWNFETWNEPDHHDFDNVSMTMQGFLNYYDACSEGLRAASPALRLGGPGDSFHTPPRSPLSWGLLRHCHDGTNFFTGEAGVRLDYISLHRKGARSSISILEQEKVVAQQIRQLFPKFADTPIYNDEADPLVGWSLPQPWRADVTYAAMVVKVIAQHQNLLLANTTSAFPYALLSNDNAFLSYHPHPFAQRTLTARFQVNNTRPPHVQLLRKPVLTAMGLLALLDEEQLWAEVSQAGTVLDSNHTVGVLASAHRPQGPADAWRAAVLIYASDDTRAHPNRSVAVTLRLRGVPPGPGLVYVTRYLDNGLCSPDGEWRRLGRPVFPTAEQFRRMRAAEDPVAAAPRPLPAGGRLTLRPALRLPSLLLVHVCARPEKPPGQVTRLRALPLTQGQLVLVWSDEHVGSKCLWTYEIQFSQDGKAYTPVSRKPSTFNLFVFSPDTGAVSGSYRVRALDYWARPGPFSDPVPYLEVPVPRGPPSPGNP
notes: also called Fab HC-GS3-IDUA
For orientation: kon means the second-order rate constant of association. By Kd is commonly meant a measure of binding affinity in units of concentration. A word on the koff: it is the first-order rate constant of dissociation. For the molecule B1, the kon in test [1] is 293000 M⁻¹ s⁻¹. Further, in test [2], the dissociation constant (Kd) turned out to be 1.32 nM, the koff is 0.000292 s⁻¹ and the kon is 221000 M⁻¹ s⁻¹.

B2: Fab GS3-PPT1 (other)
light: DIVMTQTPLSLSVTPGQPASISCRSSQSLVHSNGNTYLHWYLQKPGQSPQLLIYKVSNRFSGVPDRFSGSGSGTDFTLKISRVEAEDVGVYYCSQSTHVPWTFGQGTKVEIKRTVAAPSVFIFPPSDEQLKSGTASVVCLLNNFYPREAKVQWKVDNALQSGNSQESVTEQDSKDSTYSLSSTLTLSKADYEKHKVYACEVTHQGLSSPVTKSFNRGEC
heavy: EVQLVQSGAEVKKPGESLKISCKGSGYSFMNYWLGWVRQMPGKGLEWMGDIYPGGDYPTYSEKFKVQVTISADKSISTAYLQLSSLKASDTAMYYCARSGNYDEVAYWGQGTLVTVSSASTKGPSVFPLAPSSKSTSGGTAALGCLVKDYFPEPVTVSWNSGALTSGVHTFPAVLQSSGLYSLSSVVTVPSSSLGTQTYICNVNHKPSNTKVDKKVEPKSCDKTHTGGGGSGGGGSGGGGSDPPAPLPLVIWHGMGDSCCNPLSMGAIKKMVEKKIPGIYVLSLEIGKTLMEDVENSFFLNVNSQVTTVCQALAKDPKLQQGYNAMGFSQGGQFLRAVAQRCPSPPMINLISVGGQHQGVFGLPRCPGESSHICDFIRKTLNAGAYSKVVQERLVQAEYWHDPIKEDVYRNHSIFLADINQERGINESYKKNLMALKKFVMVKFLNDSIVDPVDSEWFGFYRSGQAKETIPLQETSLYTQDRLGLKEMDNAGQLVFLATEGDHLQLSEEWFYAHIIPFLG
notes: also called Fab HC-GS3-PPT1
Consider B2, for which, in test [1], the Kd was less than 0.001 nM, the koff is less than 1e-07 s⁻¹ and the kon is 417000 M⁻¹ s⁻¹.

B3: Fab GS3-ASM (other)
light: DIVMTQTPLSLSVTPGQPASISCRSSQSLVHSNGNTYLHWYLQKPGQSPQLLIYKVSNRFSGVPDRFSGSGSGTDFTLKISRVEAEDVGVYYCSQSTHVPWTFGQGTKVEIKRTVAAPSVFIFPPSDEQLKSGTASVVCLLNNFYPREAKVQWKVDNALQSGNSQESVTEQDSKDSTYSLSSTLTLSKADYEKHKVYACEVTHQGLSSPVTKSFNRGEC
heavy: EVQLVQSGAEVKKPGESLKISCKGSGYSFMNYWLGWVRQMPGKGLEWMGDIYPGGDYPTYSEKFKVQVTISADKSISTAYLQLSSLKASDTAMYYCARSGNYDEVAYWGQGTLVTVSSASTKGPSVFPLAPSSKSTSGGTAALGCLVKDYFPEPVTVSWNSGALTSGVHTFPAVLQSSGLYSLSSVVTVPSSSLGTQTYICNVNHKPSNTKVDKKVEPKSCDKTHTGGGGSGGGGSGGGGSLSDSRVLWAPAEAHPLSPQGHPARLHRIVPRLRDVFGWGNLTCPICKGLFTAINLGLKKEPNVARVGSVAIKLCNLLKIAPPAVCQSIVHLFEDDMVEVWRRSVLSPSEACGLLLGSTCGHWDIFSSWNISLPTVPKPPPKPPSPPAPGAPVSRILFLTDLHWDHDYLEGTDPDCADPLCCRRGSGLPPASRPGAGYWGEYSKCDLPLRTLESLLSGLGPAGPFDMVYWTGDIPAHDVWHQTRQDQLRALTTVTALVRKFLGPVPVYPAVGNHESTPVNSFPPPFIEGNHSSRWLYEAMAKAWEPWLPAEALRTLRIGGFYALSPYPGLRLISLNMNFCSRENFWLLINSTDPAGQLQWLVGELQAAEDRGDKVHIIGHIPPGHCLKSWSWNYYRIVARYENTLAAQFFGHTHVDEFEVFYDEETLSRPLAVAFLAPSATTYIGLNPGYRVYQIDGNYSGSSHVVLDHETYILNLTQANIPGAIPHWQLLYRARETYGLPNTLPTAWHNLVYRMRGDMQLFQTFWFLYHKGHPPSEPCGTPCRLATLCAQLSARADSPALCRHLMPDGSLPEAQSLWPRPLFC
notes: also called Fab HC-GS3-ASM
For B3, in test [1], the Kd came to 0.0689 nM, the koff was determined as 3.63e-05 s⁻¹ and the kon was found to be 526000 M⁻¹ s⁻¹. For the same molecule, in test [2], the Kd amounted to 2 nM, the koff is 0.000549 s⁻¹ and the kon is 274000 M⁻¹ s⁻¹.

B4: Fab GS3-ARSA (other)
light: DIVMTQTPLSLSVTPGQPASISCRSSQSLVHSNGNTYLHWYLQKPGQSPQLLIYKVSNRFSGVPDRFSGSGSGTDFTLKISRVEAEDVGVYYCSQSTHVPWTFGQGTKVEIKRTVAAPSVFIFPPSDEQLKSGTASVVCLLNNFYPREAKVQWKVDNALQSGNSQESVTEQDSKDSTYSLSSTLTLSKADYEKHKVYACEVTHQGLSSPVTKSFNRGEC
heavy: EVQLVQSGAEVKKPGESLKISCKGSGYSFMNYWLGWVRQMPGKGLEWMGDIYPGGDYPTYSEKFKVQVTISADKSISTAYLQLSSLKASDTAMYYCARSGNYDEVAYWGQGTLVTVSSASTKGPSVFPLAPSSKSTSGGTAALGCLVKDYFPEPVTVSWNSGALTSGVHTFPAVLQSSGLYSLSSVVTVPSSSLGTQTYICNVNHKPSNTKVDKKVEPKSCDKTHTGGGGSGGGGSGGGGSRPPNIVLIFADDLGYGDLGCYGHPSSTTPNLDQLAAGGLRFTDFYVPVSLCTPSRAALLTGRLPVRMGMYPGVLVPSSRGGLPLEEVTVAEVLAARGYLTGMAGKWHLGVGPEGAFLPPHQGFHRFLGIPYSHDQGPCQNLTCFPPATPCDGGCDQGLVPIPLLANLSVEAQPPWLPGLEARYMAFAHDLMADAQRQDRPFFLYYASHHTHYPQFSGQSFAERSGRGPFGDSLMELDAAVGTLMTAIGDLGLLEETLVIFTADNGPETMRMSRGGCSGLLRCGKGTTYEGGVREPALAFWPGHIAPGVTHELASSLDLLPTLAALAGAPLPNVTLDGFDLSPLLLGTGKSPRQSLFFYPSYPDEVRGVFAVRTGKYKAHFFTQGSAHSDTTADPACHASSSLTAHEPPLLYDLSKDPGENYNLLGGVAGATPEVLQALKQLQLLKAQLDAAVTFGPSQVARGEDPALQICCHPGCTPRPACCHCPDPHA
notes: also called Fab HC-GS3-ARSA
As for B4, in test [1], the kon turned out to be 670000 M⁻¹ s⁻¹. In test [2], the Kd worked out at 1.09 nM, the koff came to 0.000281 s⁻¹ and the kon was 258000 M⁻¹ s⁻¹.

B5: Fab GS3-SGSH (other)
light: DIVMTQTPLSLSVTPGQPASISCRSSQSLVHSNGNTYLHWYLQKPGQSPQLLIYKVSNRFSGVPDRFSGSGSGTDFTLKISRVEAEDVGVYYCSQSTHVPWTFGQGTKVEIKRTVAAPSVFIFPPSDEQLKSGTASVVCLLNNFYPREAKVQWKVDNALQSGNSQESVTEQDSKDSTYSLSSTLTLSKADYEKHKVYACEVTHQGLSSPVTKSFNRGEC
heavy: EVQLVQSGAEVKKPGESLKISCKGSGYSFMNYWLGWVRQMPGKGLEWMGDIYPGGDYPTYSEKFKVQVTISADKSISTAYLQLSSLKASDTAMYYCARSGNYDEVAYWGQGTLVTVSSASTKGPSVFPLAPSSKSTSGGTAALGCLVKDYFPEPVTVSWNSGALTSGVHTFPAVLQSSGLYSLSSVVTVPSSSLGTQTYICNVNHKPSNTKVDKKVEPKSCDKTHTGGGGSGGGGSGGGGSRPRNALLLLADDGGFESGAYNNSAIATPHLDALARRSLLFRNAFTSVSSCSPSRASLLTGLPQHQNGMYGLHQDVHHFNSFDKVRSLPLLLSQAGVRTGIIGKKHVGPETVYPFDFAYTEENGSVLQVGRNITRIKLLVRKFLQTQDDRPFFLYVAFHDPHRCGHSQPQYGTFCEKFGNGESGMGRIPDWTPQAYDPLDVLVPYFVPNTPAARADLAAQYTTVGRMDQGVGLVLQELRDAGVLNDTLVIFTSDNGIPFPSGRTNLYWPGTAEPLLVSSPEHPKRWGQVSEAYVSLLDLTPTILDWFSIPYPSYAIFGSKTIHLTGRSLLPALEAEPLWATVFGSQSHHEVTMSYPMRSVQHRHFRLVHNLNFKMPFPIDQDFYVSPTFQDLLNRTTAGQPTGWYKDLRHYYYRARWELYDRSRDPHETQNLATDPRFAQLLEMLRDQLAKWQWETHDPWVCAPDGVLEEKLSPQCQPLHNEL
notes: also called Fab HC-GS3-SGSH
Consider B5, for which, in test [1], the Kd is less than 0.001 nM, the koff is less than 1e-07 s⁻¹ and the association rate constant (kon) was determined as 721000 M⁻¹ s⁻¹. Further, in test [2], the Kd is less than 0.001 nM, the koff is less than 1e-07 s⁻¹ and the kon came out at 388000 M⁻¹ s⁻¹.
